Assay results as given in article PMC7375243, “Structural Basis of Human Helicase DDX21 in RNA Binding, Unwinding, and Antiviral Signal Activation” (Advanced Science, 2020).

Key:
Conditions in all cases: protein: recombinant; tags: N-terminal His-SUMO, removed by ULP1; label: FAM; single strand
[1] = target: T1, DDX21 core S375L/A376E (human, UniProt Q9NR30 188-563, S375L;A376E); test: UV crosslinking; about half of activity; MST: 50 mM Tris pH 7.5, 50 mM KCl, 2 mM MgCl2, 1 mM TCEP, 0.01% NP-40, 0.05 mg/mL BSA, 2 mM AMPPNP, 50 nM FAM-RNA; temperature not given; crosslinking buffer not in material
T1 sequence: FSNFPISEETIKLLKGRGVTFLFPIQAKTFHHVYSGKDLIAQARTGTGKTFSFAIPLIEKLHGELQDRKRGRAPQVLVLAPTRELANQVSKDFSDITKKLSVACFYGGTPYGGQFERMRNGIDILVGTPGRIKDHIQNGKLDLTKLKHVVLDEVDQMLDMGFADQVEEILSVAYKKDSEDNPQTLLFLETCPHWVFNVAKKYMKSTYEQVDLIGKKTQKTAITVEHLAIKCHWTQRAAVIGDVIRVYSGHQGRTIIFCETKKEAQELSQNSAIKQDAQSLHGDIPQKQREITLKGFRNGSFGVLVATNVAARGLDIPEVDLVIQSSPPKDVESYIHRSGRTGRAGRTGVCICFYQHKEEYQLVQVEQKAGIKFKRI

[2] = target: T2, DDX21 core del-loop (human, UniProt Q9NR30 188-563, del401-405); test: UV crosslinking; retains more than half; MST: 50 mM Tris pH 7.5, 50 mM KCl, 2 mM MgCl2, 1 mM TCEP, 0.01% NP-40, 0.05 mg/mL BSA, 2 mM AMPPNP, 50 nM FAM-RNA; temperature not given; crosslinking buffer not in material
T2 sequence: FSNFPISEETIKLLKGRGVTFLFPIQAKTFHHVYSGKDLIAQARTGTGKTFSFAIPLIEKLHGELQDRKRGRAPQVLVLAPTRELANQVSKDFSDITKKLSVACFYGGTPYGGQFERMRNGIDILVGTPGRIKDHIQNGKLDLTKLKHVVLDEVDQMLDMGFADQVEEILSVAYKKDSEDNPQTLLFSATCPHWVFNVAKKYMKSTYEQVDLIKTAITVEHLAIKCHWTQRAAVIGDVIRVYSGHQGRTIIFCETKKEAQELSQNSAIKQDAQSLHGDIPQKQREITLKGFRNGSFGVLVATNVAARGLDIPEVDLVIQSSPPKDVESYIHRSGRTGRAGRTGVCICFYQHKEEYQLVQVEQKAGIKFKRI

[3] = target: T3, DDX21 core D339H/E340G (DEV mutant) (human, UniProt Q9NR30 188-563, D339H;E340G); test: UV crosslinking; highest activity of all; MST: 50 mM Tris pH 7.5, 50 mM KCl, 2 mM MgCl2, 1 mM TCEP, 0.01% NP-40, 0.05 mg/mL BSA, 2 mM AMPPNP, 50 nM FAM-RNA; temperature not given; crosslinking buffer not in material
T3 sequence: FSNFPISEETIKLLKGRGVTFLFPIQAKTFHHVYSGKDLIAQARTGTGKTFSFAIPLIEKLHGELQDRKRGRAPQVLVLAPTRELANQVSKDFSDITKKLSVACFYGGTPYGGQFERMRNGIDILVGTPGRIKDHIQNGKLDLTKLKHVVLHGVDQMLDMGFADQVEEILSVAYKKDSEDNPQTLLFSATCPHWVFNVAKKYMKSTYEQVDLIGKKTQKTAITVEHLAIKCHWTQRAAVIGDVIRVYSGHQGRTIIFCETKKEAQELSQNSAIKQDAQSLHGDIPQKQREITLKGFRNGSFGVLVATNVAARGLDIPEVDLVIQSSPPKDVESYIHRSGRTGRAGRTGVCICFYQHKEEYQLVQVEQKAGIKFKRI

[4] = target: T4, DDX21 core T494A (human, UniProt Q9NR30 188-563, T494A); test: UV crosslinking; negligibly affected; MST: 50 mM Tris pH 7.5, 50 mM KCl, 2 mM MgCl2, 1 mM TCEP, 0.01% NP-40, 0.05 mg/mL BSA, 2 mM AMPPNP, 50 nM FAM-RNA; temperature not given; crosslinking buffer not in material
T4 sequence: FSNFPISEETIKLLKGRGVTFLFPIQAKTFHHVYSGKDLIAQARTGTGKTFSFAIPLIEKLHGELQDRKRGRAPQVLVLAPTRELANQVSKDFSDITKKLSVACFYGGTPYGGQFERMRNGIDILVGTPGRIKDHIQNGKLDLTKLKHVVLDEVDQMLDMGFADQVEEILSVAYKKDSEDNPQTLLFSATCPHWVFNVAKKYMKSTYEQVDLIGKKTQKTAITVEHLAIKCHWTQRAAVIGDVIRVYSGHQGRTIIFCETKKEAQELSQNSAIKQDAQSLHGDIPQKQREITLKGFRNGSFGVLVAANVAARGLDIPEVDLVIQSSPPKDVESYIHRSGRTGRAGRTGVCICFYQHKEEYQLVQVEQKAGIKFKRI

[5] = target: T5, DDX21 core T315A (human, UniProt Q9NR30 188-563, T315A); test: as above
T5 sequence: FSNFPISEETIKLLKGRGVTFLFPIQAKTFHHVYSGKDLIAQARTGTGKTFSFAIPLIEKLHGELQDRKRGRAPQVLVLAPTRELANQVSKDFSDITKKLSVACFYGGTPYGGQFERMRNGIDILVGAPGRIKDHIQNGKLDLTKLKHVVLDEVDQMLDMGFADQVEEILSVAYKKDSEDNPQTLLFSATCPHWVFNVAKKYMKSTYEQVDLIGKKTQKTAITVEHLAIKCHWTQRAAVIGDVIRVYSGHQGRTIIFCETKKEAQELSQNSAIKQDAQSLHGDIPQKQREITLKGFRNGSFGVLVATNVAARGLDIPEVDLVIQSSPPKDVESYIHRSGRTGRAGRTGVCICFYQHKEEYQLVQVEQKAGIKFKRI

UUUUUUUUUUUUUUU (ssRNA) [FAM-U15]
binding signal [1]: ~50 % of WT | binding signal [2]: > 50 % of WT | binding result [3]: binds | binding result [4]: binds | binding result [5]: binds
